The results in this text go back to PMC12990809.

Holding throughout (assay): pulldown
Common to all, as to conditions: 20 nM protein, 1.5 uM RNA pool; 20 mM HEPES pH 7.8, 70 mM KCl, 10 mM NaCl, 10% glycerol, 2 mM DTT, 0.1 ug/uL BSA; 30 min, 4 C

In data set [1] the target is T1, Tb10.389.1650 (Trypanosoma brucei) (UniProt Q389D4).
T1 sequence: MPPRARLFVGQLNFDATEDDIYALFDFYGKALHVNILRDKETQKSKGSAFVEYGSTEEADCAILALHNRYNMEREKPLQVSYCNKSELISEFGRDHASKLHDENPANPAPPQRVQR

For data set [2], the target named is RBPMS2 (Monodelphis domestica) (UniProt A0A5F8GJ20).
Chain of RBPMS2 (Monodelphis domestica) (A0A5F8GJ20 entry or part of it): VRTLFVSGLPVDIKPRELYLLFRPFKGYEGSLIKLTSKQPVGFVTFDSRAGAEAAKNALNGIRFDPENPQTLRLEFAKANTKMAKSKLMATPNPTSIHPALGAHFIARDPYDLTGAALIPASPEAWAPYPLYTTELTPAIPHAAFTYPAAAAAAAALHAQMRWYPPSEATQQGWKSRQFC
Data set [3] deals with T2, Tb11.01.5690 S174N (Trypanosoma brucei) (UniProt Q382C7).
T2 sequence: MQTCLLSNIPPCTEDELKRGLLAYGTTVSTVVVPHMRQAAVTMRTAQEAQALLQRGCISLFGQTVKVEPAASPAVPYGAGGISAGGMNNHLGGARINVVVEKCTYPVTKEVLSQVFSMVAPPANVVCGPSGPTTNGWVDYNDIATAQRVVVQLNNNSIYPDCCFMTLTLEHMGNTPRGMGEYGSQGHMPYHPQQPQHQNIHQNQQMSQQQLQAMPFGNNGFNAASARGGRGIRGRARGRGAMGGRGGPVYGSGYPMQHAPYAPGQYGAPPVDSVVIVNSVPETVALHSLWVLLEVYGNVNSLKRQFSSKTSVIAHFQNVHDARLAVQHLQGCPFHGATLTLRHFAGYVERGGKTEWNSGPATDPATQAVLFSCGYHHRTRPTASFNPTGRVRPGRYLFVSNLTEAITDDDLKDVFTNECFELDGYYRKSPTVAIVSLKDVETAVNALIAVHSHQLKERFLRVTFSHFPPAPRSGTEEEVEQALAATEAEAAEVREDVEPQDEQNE

In data set [4] the target is T3, ENSGALG00000014089 (Gallus gallus) (UniProt A0A8V0XZS6).
T3 sequence: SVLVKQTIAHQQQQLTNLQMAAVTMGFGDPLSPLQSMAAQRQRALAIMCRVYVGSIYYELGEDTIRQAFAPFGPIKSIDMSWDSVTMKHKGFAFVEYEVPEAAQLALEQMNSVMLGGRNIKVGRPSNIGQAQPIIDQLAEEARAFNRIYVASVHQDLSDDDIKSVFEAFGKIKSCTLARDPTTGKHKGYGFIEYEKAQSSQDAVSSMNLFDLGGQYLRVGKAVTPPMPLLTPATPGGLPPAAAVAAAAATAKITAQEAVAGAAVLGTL

In data set [5] the target is T4, Tb11.03.0550 L37P (Trypanosoma brucei) (UniProt Q387J8).
T4 sequence: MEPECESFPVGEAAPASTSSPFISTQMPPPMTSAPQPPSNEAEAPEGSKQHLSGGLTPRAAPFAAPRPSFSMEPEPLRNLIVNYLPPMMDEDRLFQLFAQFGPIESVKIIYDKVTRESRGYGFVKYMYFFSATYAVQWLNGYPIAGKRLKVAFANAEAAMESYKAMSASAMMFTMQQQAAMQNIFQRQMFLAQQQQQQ

Another data set has as its target T5, mex3c (Danio rerio) (UniProt A0A8M1REM5).
T5 sequence: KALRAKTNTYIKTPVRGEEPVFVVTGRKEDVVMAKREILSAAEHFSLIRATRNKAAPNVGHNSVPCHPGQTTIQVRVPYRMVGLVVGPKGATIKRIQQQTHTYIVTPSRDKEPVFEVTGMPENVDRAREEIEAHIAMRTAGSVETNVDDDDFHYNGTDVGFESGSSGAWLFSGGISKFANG

Data set [6] has as its target T6, PK10695.1 (Cannabis sativa) (UniProt A0A803NZQ3).
T6 sequence: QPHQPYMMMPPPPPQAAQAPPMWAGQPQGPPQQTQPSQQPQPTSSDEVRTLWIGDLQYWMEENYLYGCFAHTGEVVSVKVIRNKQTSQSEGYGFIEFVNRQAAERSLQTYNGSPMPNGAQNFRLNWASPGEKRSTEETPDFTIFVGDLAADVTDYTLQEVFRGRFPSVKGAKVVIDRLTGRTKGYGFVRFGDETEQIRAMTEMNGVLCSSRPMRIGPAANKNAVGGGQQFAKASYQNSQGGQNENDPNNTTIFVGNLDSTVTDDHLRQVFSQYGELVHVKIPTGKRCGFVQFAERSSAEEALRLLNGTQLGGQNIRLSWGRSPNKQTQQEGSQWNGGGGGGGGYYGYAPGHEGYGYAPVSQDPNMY

Data set [7] deals with T7, LmjF.29.1370 (Leishmania major) (UniProt E9ADZ6).
T7 sequence: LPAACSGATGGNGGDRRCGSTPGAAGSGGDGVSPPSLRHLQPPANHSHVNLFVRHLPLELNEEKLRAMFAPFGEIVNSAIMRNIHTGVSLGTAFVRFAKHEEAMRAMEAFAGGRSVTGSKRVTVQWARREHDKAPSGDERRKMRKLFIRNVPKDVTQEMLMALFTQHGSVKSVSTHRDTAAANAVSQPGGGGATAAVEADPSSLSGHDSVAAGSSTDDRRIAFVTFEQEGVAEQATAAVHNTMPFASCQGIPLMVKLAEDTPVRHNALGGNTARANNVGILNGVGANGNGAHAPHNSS

In data set [8] the test system is T8, ENSMODG00000011903 (Monodelphis domestica).
T8 sequence: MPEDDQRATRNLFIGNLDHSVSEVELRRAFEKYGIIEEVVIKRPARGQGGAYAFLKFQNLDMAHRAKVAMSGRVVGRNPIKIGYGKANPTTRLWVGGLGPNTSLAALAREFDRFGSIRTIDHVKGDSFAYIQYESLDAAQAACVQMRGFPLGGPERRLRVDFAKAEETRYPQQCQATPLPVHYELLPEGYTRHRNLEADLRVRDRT

For the substance UUUGCU [RNAcompete motif RNCMPT00732], the binding signal (z-score (mean of top ten 7-mers)) in [1] came to 18.9.
For ANCACG [RNAcompete motif RNCMPT00757], the binding signal (z-score (mean of top ten 7-mers)) in [2] stood at 8.74.
Substance GAAAGAAA [RNAcompete motif RNCMPT00773] gave a binding signal (z-score (mean of top ten 7-mers)) in data set [3] of 9.18.
For the substance UUUUUUU [RNAcompete motif RNCMPT00760], in data set [4], the binding signal (z-score (mean of top ten 7-mers)) turned out to be 11.4.
Regarding UUAUUUU [RNAcompete motif RNCMPT00749], in [5], the binding signal (z-score (mean of top ten 7-mers)) was 13.9.
Substance AGAGUA [RNAcompete motif RNCMPT00727] returned a binding signal (z-score (mean of top ten 7-mers)) with mex3c (Danio rerio) of 10.1.
UUUAUUUU [RNAcompete motif RNCMPT00741]: the binding signal (z-score (mean of top ten 7-mers)) in data set [6] was found to be 10.2.
With CAUAGU [RNAcompete motif RNCMPT00762], in data set [7], the binding signal (z-score (mean of top ten 7-mers)) was 29.8.
For UUUUUUG [RNAcompete motif RNCMPT00758], the binding signal (z-score (mean of top ten 7-mers)) in data set [8] came to 7.84.
